± gives the standard deviation of the averaged measurements.
Columns and labels:
hTERT-HMEC = test: percentage of EdU-negative (G0-arrested) nuclei per well, 72 h; higher = more G0 arrest; settings: reference: sequence is the full UniProt precursor, the tested protein was the secreted form or ectodomain
MCF7 = test: as above; settings: reference: sequence is the full UniProt precursor, the tested protein was the secreted form or ectodomain
[1] = protein concentration 0.0257143 µM
[2] = protein concentration 0.257143 µM
[3] = protein concentration 0.0117143 µM
[4] = protein concentration 0.117143 µM
[5] = protein concentration 0.0225 µM
[6] = protein concentration 0.00875 µM
[7] = protein concentration 0.0875 µM
[8] = protein concentration 0.01975 µM
[9] = protein concentration 0.1975 µM
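Also: secreted proteins added to cultured cells, EdU pulse at the end, nuclei found by Hoechst imaging, EdU status from nuclear versus surrounding ring intensity ratio, PBS as neutral control.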

Sequence: MWLRLGPPSLSLSPKPTVGRSLCLTLWFLSLALRASTQAPAPTVNTHFGKLRGARVPLPSEILGPVDQYLGVPYAAPPIGEKRFLPPEPPPSWSGIRNATHFPPVCPQNIHTAVPEVMLPVWFTANLDIVATYIQEPNEDCLYLNVYVPTEDVKRISKECARKPNKKICRKGGSGAKKQGEDLADNDGDEDEDIRDSGAKPVMVYIHGGSYMEGTGNMIDGSILASYGNVIVITLNYRVGVLGFLSTGDQAAKGNYGLLDQIQALRWVSENIAFFGGDPRRITVFGSGIGASCVSLLTLSHHSEGLFQRAIIQSGSALSSWAVNYQPVKYTSLLADKVGCNVLDTVDMVDCLRQKSAKELVEQDIQPARYHVAFGPVIDGDVIPDDPEILMEQGEFLNYDIMLGVNQGEGLKFVEGVVDPEDGVSGTDFDYSVSNFVDNLYGYPEGKDTLRETIKFMYTDWADRDNPETRRKTLVALFTDHQWVEPSVVTADLHARYGSPTYFYAFYHHCQSLMKPAWSDAAHGDEVPYVFGVPMVGPTDLFPCNFSKNDVMLSAVVMTYWTNFAKTGDPNKPVPQDTKFIHTKANRFEEVAWSKYNPRDQLYLHIGLKPRVRDHYRATKVAFWKHLVPHLYNLHDMFHYTSTTTKVPPPDTTHSSHITRRPNGKTWSTKRPAISPAYSNENAQGSWNGDQDAGPLLVENPRDYSTELSVTIAVGASLLFLNVLAFAALYYRKDKRRQEPLRQPSPQRGAGAPELGAAPEEELAALQLGPTHHECEAGPPHDTLRLTALPDYTLTLRRSPDDIPLMTPNTITMIPNSLVGLQTLHPYNTFAAGFNSTGLPHSHSTTRV [Q9NZ94]
- percentage of EdU-negative (hTERT-HMEC; [1]): 5.8 ± 1.5%
- percentage of EdU-negative (hTERT-HMEC; [2]): 10.2 ± 2.3%
- percentage of EdU-negative (MCF7; [1]): 24.2 ± 1.1%
- percentage of EdU-negative (MCF7; [2]): 24.1 ± 1.1%

Sequence: MKMMLVRRFRVLILMVFLVACALHIALDLLPRLERRGARPSGEPGCSCAQPAAEVAAPGWAQVRGRPGEPPAASSAAGDAGWPNKHTLRILQDFSSDPSSNLSSHSLEKLPPAAEPAERALRGRDPGALRPHDPAHRPLLRDPGPRRSESPPGPGGDASLLARLFEHPLYRVAVPPLTEEDVLFNVNSDTRLSPKAAENPDWPHAGAEGAEFLSPGEAAVDSYPNWLKFHIGINRYELYSRHNPAIEALLHDLSSQRITSVAMKSGGTQLKLIMTFQNYGQALFKPMKQTREQETPPDFFYFSDYERHNAEIAAFHLDRILDFRRVPPVAGRMVNMTKEIRDVTRDKKLWRTFFISPANNICFYGECSYYCSTEHALCGKPDQIEGSLAAFLPDLSLAKRKTWRNPWRRSYHKRKKAEWEVDPDYCEEVKQTPPYDSSHRILDVMDMTIFDFLMGNMDRHHYETFEKFGNETFIIHLDNGRGFGKYSHDELSILVPLQQCCRIRKSTYLRLQLLAKEEYKLSLLMAESLRGDQVAPVLYQPHLEALDRRLRVVLKAVRDCVERNGLHSVVDDDLDTEHRAASAR [Q8IXL6]
- percentage of EdU-negative (hTERT-HMEC; [3]): 5.97 ± 0.7%
- percentage of EdU-negative (hTERT-HMEC; [4]): 6.51 ± 0.12%
- percentage of EdU-negative (MCF7; [3]): 23.5 ± 2.4%
- percentage of EdU-negative (MCF7; [4]): 24.2 ± 0.32%

Sequence: MTRTYENFQYLENKVKVQGFKNGPLPLQSLLQRLCSGPCHLLLSLGLGLLLLVIICVVGFQNSKFQRDLVTLRTDFSNFTSNTVAEIQALTSQGSSLEETIASLKAEVEGFKQERQAGVSELQEHTTQKAHLGHCPHCPSVCVPVHSEMLLRVQQLVQDLKKLTCQVATLNNNASTEGTCCPVNWVEHQDSCYWFSHSGMSWAEAEKYCQLKNAHLVVINSREEQNFVQKYLGSAYTWMGLSDPEGAWKWVDGTDYATGFQNWKPGQPDDWQGHGLGGGEDCAHFHPDGRWNDDVCQRPYHWVCEAGLGQTSQESH [Q8IUN9]
- percentage of EdU-negative (hTERT-HMEC; [5]): 5.25 ± 0.3%
- percentage of EdU-negative (hTERT-HMEC; protein concentration 0.225 µM): 4.954 ± 0.011%
- percentage of EdU-negative (MCF7; [5]): 24.9 ± 1%
- percentage of EdU-negative (MCF7; protein concentration 0.225 µM): 26.5 ± 0.74%

Sequence: MALTLFDTDEYRPPVWKSYLYQLQQEAPHPRRITCTCEVENRPKYYGREFHGMISREAADQLLIVAEGSYLIRESQRQPGTYTLALRFGSQTRNFRLYYDGKHFVGEKRFESIHDLVTDGLITLYIETKAAEYIAKMTINPIYEHVGYTTLNREPAYKKHMPVLKETHDERDSTGQDGVSEKRLTSLVRRATLKENEQIPKYEKIHNFKVHTFRGPHWCEYCANFMWGLIAQGVKCADCGLNVHKQCSKMVPNDCKPDLKHVKKVYSCDLTTLVKAHTTKRPMVVDMCIREIESRGLNSEGLYRVSGFSDLIEDVKMAFDRDGEKADISVNMYEDINIITGALKLYFRDLPIPLITYDAYPKFIESAKIMDPDEQLETLHEALKLLPPAHCETLRYLMAHLKRVTLHEKENLMNAENLGIVFGPTLMRSPELDAMAALNDIRYQRLVVELLIKNEDILF [B8ZZ96]
- percentage of EdU-negative (hTERT-HMEC; [6]): 4.91 ± 0.4%
- percentage of EdU-negative (hTERT-HMEC; [7]): 6.84 ± 1.4%
- percentage of EdU-negative (MCF7; [6]): 25.94 ± 0.25%
- percentage of EdU-negative (MCF7; [7]): 26.7 ± 0.53%

Sequence: MGPLMVLFCLLFLYPGLADSAPSCPQNVNISGGTFTLSHGWAPGSLLTYSCPQGLYPSPASRLCKSSGQWQTPGATRSLSKAVCKPVRCPAPVSFENGIYTPRLGSYPVGGNVSFECEDGFILRGSPVRQCRPNGMWDGETAVCDNGAGHCPNPGISLGAVRTGFRFGHGDKVRYRCSSNLVLTGSSERECQGNGVWSGTEPICRQPYSYDFPEDVAPALGTSFSHMLGATNPTQKTKESLGRKIQIQRSGHLNLYLLLDCSQSVSENDFLIFKESASLMVDRIFSFEINVSVAIITFASEPKVLMSVLNDNSRDMTEVISSLENANYKDHENGTGTNTYAALNSVYLMMNNQMRLLGMETMAWQEIRHAIILLTDGKSNMGGSPKTAVDHIREILNINQKRNDYLDIYAIGVGKLDVDWRELNELGSKKDGERHAFILQDTKALHQVFEHMLDVSKLTDTICGVGNMSANASDQERTPWHVTIKPKSQETCRGALISDQWVLTAAHCFRDGNDHSLWRVNVGDPKSQWGKEFLIEKAVISPGFDVFAKKNQGILEFYGDDIALLKLAQKVKMSTHARPICLPCTMEANLALRRPQGSTCRDHENELLNKQSVPAHFVALNGSKLNINLKMGVEWTSCAEVVSQEKTMFPNLTDVREVVTDQFLCSGTQEDESPCKGESGGAVFLERRFRFFQVGLVSWGLYNPCLGSADKNSRKRAPRSKVPPPRDFHINLFRMQPWLRQHLGDVLNFLPL
- percentage of EdU-negative (hTERT-HMEC; [8]): 5.66 ± 0.4%
- percentage of EdU-negative (hTERT-HMEC; [9]): 16.21 ± 0.11%
- percentage of EdU-negative (MCF7; [8]): 27.3 ± 1.1%
- percentage of EdU-negative (MCF7; [9]): 27.9 ± 2%
